Data published in patent US9766250B2, “Method for detecting protein-protein interaction” (MEDICAL & BIOLOGICAL LABORATORIES CO., LTD., priority 2011, dated 2017).

B1: DsRed2: fluorescent protein capable of homotetramerization, SEQ ID NO: 153 (protein)
chain: MASSENVITEFMRFKVRMEGTVNGHEFEIEGEGEGRPYEGHNTVKLKVTKGGPLPFAWDILSPQFQYGSKVYVKHPADIPDYKKLSFPEGFKWERVMNFEDGGVATVTQDSSLQDGCFIYKVKFIGVNFPSDGPVMQKKTMGWEASTERLYPRDGVLKGETHKALKLKDGGHYLVEFKSIYMAKKPVQLPGYYYVDAKLDITSHNEDYTIVEQYERTEGRHHLFL
modifications: Synthetic sequence DsRed2
B2: monomeric Kikume Green-Red1 (protein)
chain: MVSVITSEMKIELRMEGSVNGHKFVITGKGSGRPYEGTQTVDLTVIEGGPLPFAFDILTTAFHYGNRVFVEYPEEIVDYFKQSFPEGYSWERSMSYEDGGICLATNNITMKKDGSNTFVNEIRFDGTNFPANGPVMQRKTVKWEPSTEKMYVRDGVLKGDVEMALLLEGGGHYRCDFRTTYKAKKVVQLPDYHYVDHQMEITSHDKDYNKVKAYEHAKAYSGTYRGAKYEFEA
modifications: Synthetic sequence mKikGR1
B3: COR5: fluorescent protein capable of homotetramerization, SEQ ID NO: 172 (protein)
chain: MALSKHGLTKNMTTKYRMEGCVDGHKFVITGDGIGDPFEGKQTSIDLCVVEGGPLPFSEDILSTVFDYGNRVFTKYPQDLVDYFKNSCPAGYTWQRSFLFEDGAVCTASADIRVSVEENCFYHESKFHGVNFPADGPVMKKMTTNWEPSCEKITPILNEGILKGDVTMFLLLKDGGRYRCQFDTVYKAKADAKDMPEMHFIQHELTREDRSDAKHQKWRLVESAIAYRSTPP
modifications: Synthetic sequence COR5

Target: T1, mTOR(FRB) and FKBP12 interaction (Homo sapiens, UniProt P42345+P62942)
T1 construct: region having the 2025th to 2114th amino acids of the mTOR protein; expressed in transfected cells; host or cells: HeLaS3; 293T for some combinations with FKBP12-Tankyrase(SAM)
Experiment: Degree of fluorescent focus (assembly) formation after rapamycin with TFG(PB1) (Example 9, Table 2)
Type: cell-based
Settings: fluorescent protein fused to mTOR(FRB), KO1 and dAG (AB) in 293T cells

T1 sequence (P42345 2025-2114): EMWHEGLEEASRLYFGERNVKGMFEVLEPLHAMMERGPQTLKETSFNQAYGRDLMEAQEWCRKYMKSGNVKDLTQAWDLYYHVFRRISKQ
T1 sequence (P62942 whole entry): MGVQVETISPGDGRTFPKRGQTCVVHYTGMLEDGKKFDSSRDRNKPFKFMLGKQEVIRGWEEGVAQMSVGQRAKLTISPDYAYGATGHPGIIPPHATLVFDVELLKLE

Row | Molecule | degree of fluorescent focus formation, TFG (PB1)
1 | B1 | ++ (fluorescent foci were observed in 50% or less of the HeLaS3 cells)
2 | B2 | ++ (fluorescent foci were observed in 50% or less of the HeLaS3 cells)
3 | B3 | ++ (fluorescent foci were observed in 50% or less of the HeLaS3 cells)

Target: T1, mTOR(FRB) and FKBP12 interaction
Experiment: Degree of fluorescent focus (assembly) formation after rapamycin, fluorescent proteins fused to mTOR(FRB) (Example 8, Table 1)
Type: cell-based
Settings: fluorescent protein fused to mTOR(FRB), with FKBP12-DGKd(SAM)
Method: Note that plasmid DNAs encoding fusion proteins composed of mTOR(FRB) and the corresponding fluorescent proteins were prepared as appropriate by the same method as that described in Example 2. Moreover, regarding the combinations of FKBP12-Tankyrase(SAM) with mKO2, mKeima, mMiCy1, mKO1, MiCy1, and TGuv, the test was conducted by introducing the genes into 293T cells. Specifically, the 293T cells were cultured in DMEM High glucose (manufactured by SIGMA ALDRICH CO.) containing 10% FBS (manufactured by Equitech-Bio Inc.). Moreover, the 293T cells were seeded onto an 8-well chamber (manufactured by Nunc A/S) 6 hours before the plasmid DNAs were introduced. Further, at the time of the transfection, 200 ng of the plasmid DNA encoding FKBP12-Tankyrase(SAM) and 200 ng of one of the plasmid DNAs encoding fusion proteins composed of the fluorescent proteins and mTOR(FRB) were diluted with 30 μl of OptiMEM (manufactured by Life Technologies Corporation), and 1.2 μl of TurboFect Transfection Reagent (manufactured by Thermo Fisher Scientific Inc.) was added thereto and stirred. Then, the resultant was further mixed with 300 μl of the culture solution, subsequently added to the 293T cells, and observed 48 hours later.

Row | Molecule | degree of fluorescent focus formation, DGKd (SAM)
4 | B1 | +++ (fluorescent foci were observed in 50% or more of the HeLaS3 cells)
5 | B2 | +++ (fluorescent foci were observed in 50% or more of the HeLaS3 cells)
6 | B3 | +++ (fluorescent foci were observed in 50% or more of the HeLaS3 cells)

Same assay, conditions: fluorescent protein fused to mTOR(FRB), with FKBP12-TEL(SAM)

Row | Molecule | degree of fluorescent focus formation, TEL (SAM)
7 | B1 | +++ (fluorescent foci were observed in 50% or more of the HeLaS3 cells)
8 | B2 | +++ (fluorescent foci were observed in 50% or more of the HeLaS3 cells)
9 | B3 | +++ (fluorescent foci were observed in 50% or more of the HeLaS3 cells)

Same assay, conditions: fluorescent protein fused to mTOR(FRB), with FKBP12-Tankyrase(SAM), some combinations in 293T cells

Row | Molecule | degree of fluorescent focus formation, Tankyrase (SAM)
10 | B1 | +++ (fluorescent foci were observed in 50% or more of the HeLaS3 cells)
11 | B2 | +++ (fluorescent foci were observed in 50% or more of the HeLaS3 cells)
12 | B3 | +++ (fluorescent foci were observed in 50% or more of the HeLaS3 cells)

Same assay, conditions: fluorescent protein fused to mTOR(FRB), with p62(PB1)-FKBP12

Row | Molecule | degree of fluorescent focus formation, P62 (PB1)
13 | B1 | +++ (fluorescent foci were observed in 50% or more of the HeLaS3 cells)
14 | B2 | +++ (fluorescent foci were observed in 50% or more of the HeLaS3 cells)
15 | B3 | +++ (fluorescent foci were observed in 50% or more of the HeLaS3 cells)
